# Test results from patent US20040138119.
# Key:
# [1] = molecular target: purified recombinant Survivin (untagged)
# [2] = molecular target: combination of His6-HBXIP and Survivin
Protein,"Caspase-3 protease activity, hydrolysis of Ac-DEVD-AFC [1]","Caspase-9 activity (cleavage of Ac-LEHD-AFC) and pro-Caspase-9 processing after Apaf1, Cytochrome C and dATP (His6-HBXIP)","Caspase-9 activity (cleavage of Ac-LEHD-AFC) and pro-Caspase-9 processing after Apaf1, Cytochrome C and dATP [2]","Caspase-9 activity (cleavage of Ac-LEHD-AFC) and pro-Caspase-9 processing after Apaf1, Cytochrome C and dATP [1]"
recombinant active Caspase-3 (protein) SGISLDNSYKMDYPEMGLCIIINNKNFHKSTGMTSRSGTDVDAANLRETFRNLKYEVRNKNDLTREEIVELMRDVSKEDHSKRSSFVCVLLSHGEEGIIFGTNGPVDLKKITNFFRGDRCRSLTGKPKLFIIQACRGTELDCGIETDSGVDDDMACHKIPVEADFLYAYSTAPGYYSWRNSKDGSWFIQSLCAMLKQYADKLEFMHILTRVNRKVATEFESFSFDATFHAKKQIPCIVSMLTKELYFYH,"Even at a 1000-fold molar excess of Survivin relative to active Caspase-3, essentially no inhibition was observed.",,,
His6-pro-Caspase-9 (protein) HHHHHHMDEADRRLLRRCRLRLVEELQVDQLWDALLSRELFRPHMIEDIQRAGSGSRRDQARQLIIDLETRGSQALPLFISCLEDTGQDMLASFLRTNRQAAKLSKPTLENLTPVVLRPEIRKPEVLRPETPRPVDIGSGGFGDVGALESLRGNADLAYILSMEPCGHCLIINNVNFCRESGLRTRTGSNIDCEKLRRRFSSLHFMVEVKGDLTAKKMVLALLELAQQDHGALDCCVVVILSHGCQASHLQFPGAVYGTDGCPVSVEKIVNIFNGTSCPSLGGKPKLFFIQACGGEQKDHGFEVASTSPEDESPGSNPEPDATPFQEGLRTFDQLDAISSLPTPSDIFVSYSTFPGFVSWRDPKSGSWYVETLDDIFEQWAHSEDLQSLLLRVANAVSVKGIYKQMPGCFNFLRKKLFFKTS,,Addition of either recombinant purified Survivin or HBXIP individually was ineffective at blocking Apaf1-mediated activation and proteolytic processing of pro-Caspase-9 in vitro.,the combination of Survivin and HBXIP effectively suppressed generation of Caspase-9 protease activity,Addition of either recombinant purified Survivin or HBXIP individually was ineffective at blocking Apaf1-mediated activation and proteolytic processing of pro-Caspase-9 in vitro.
